B1: Splicing factor 45 (Homo sapiens), Q96I25 (parent)
chain: MSLYDDLGVETSDSKTEGWSKNFKLLQSQLQVKKAALTQAKSQRTKQSTVLAPVIDLKRGGSSDDRQIVDTPPHVAAGLKDPVPSGFSAGEVLIPLADEYDPMFPNDYEKVVKRQREERQRQRELERQKEIEEREKRRKDRHEASGFARRPDPDSDEDEDYERERRKRSMGGAAIAPPTSLVEKDKELPRDFPYEEDSRPRSQSSKAAIPPPVYEEQDRPRSPTGPSNSFLANMGGTVAHKIMQKYGFREGQGLGKHEQGLSTALSVEKTSKRGGKIIVGDATEKDASKKSDSNPLTEILKCPTKVVLLRNMVGAGEVDEDLEVETKEECEKYGKVGKCVIFEIPGAPDDEAVRIFLEFERVESAIKAVVDLNGRYFGGRVVKACFYNLDKFRVLDLAEQV
partner: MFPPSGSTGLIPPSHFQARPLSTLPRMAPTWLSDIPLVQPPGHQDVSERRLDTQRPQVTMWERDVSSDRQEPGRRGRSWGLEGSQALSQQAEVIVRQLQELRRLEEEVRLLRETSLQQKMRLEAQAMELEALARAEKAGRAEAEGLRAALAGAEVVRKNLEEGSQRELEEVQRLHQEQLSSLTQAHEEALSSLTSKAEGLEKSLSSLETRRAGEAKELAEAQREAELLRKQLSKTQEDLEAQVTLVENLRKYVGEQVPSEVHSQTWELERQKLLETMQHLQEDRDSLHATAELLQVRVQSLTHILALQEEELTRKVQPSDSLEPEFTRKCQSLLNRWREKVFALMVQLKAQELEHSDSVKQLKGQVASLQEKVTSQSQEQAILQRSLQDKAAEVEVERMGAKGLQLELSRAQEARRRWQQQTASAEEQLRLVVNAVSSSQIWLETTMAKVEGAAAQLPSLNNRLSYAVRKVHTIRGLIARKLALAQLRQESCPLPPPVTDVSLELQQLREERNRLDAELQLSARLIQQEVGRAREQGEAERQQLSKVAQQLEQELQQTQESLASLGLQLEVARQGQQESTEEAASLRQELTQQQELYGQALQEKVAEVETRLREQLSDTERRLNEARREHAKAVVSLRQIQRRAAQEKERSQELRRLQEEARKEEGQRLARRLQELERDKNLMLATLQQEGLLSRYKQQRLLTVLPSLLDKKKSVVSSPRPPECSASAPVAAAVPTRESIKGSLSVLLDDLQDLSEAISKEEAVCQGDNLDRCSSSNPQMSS
B2: TNF receptor-associated factor 1 (Homo sapiens), Q13077 (parent)
chain: MASSSGSSPRPAPDENEFPFGCPPTVCQDPKEPRALCCAGCLSENPRNGEDQICPKCRGEDLQSISPGSRLRTQEKAHPEVAEAGIGCPFAGVGCSFKGSPQSVQEHEVTSQTSHLNLLLGFMKQWKARLGCGLESGPMALEQNLSDLQLQAAVEVAGDLEVDCYRAPCSESQEELALQHFMKEKLLAELEGKLRVFENIVAVLNKEVEASHLALATSIHQSQLDRERILSLEQRVVELQQTLAQKDQALGKLEQSLRLMEEASFDGTFLWKITNVTRRCHESACGRTVSLFSPAFYTAKYGYKLCLRLYLNGDGTGKRTHLSLFIVIMRGEYDALLPWPFRNKVTFMLLDQNNREHAIDAFRPDLSSASFQRPQSETNVASGCPLFFPLSKLQSPKHAYVKDDTMFLKCIVETST
B3: Uncharacterized protein C3orf62 (Homo sapiens), Q6ZUJ4 (parent)
chain: MHYIKTWSLLGEMSEKLRRCRKELTAAIDRAFEGVSYSQECTGQQRLELSAAPLSFSLPVHRLLCRRHPLAACSSAAPFAAVPCAPENENPAFATNHAPVNAKPHALCPERKPLTSKENVLMHSSILAPERESWRTAGEGENWRKENLRKDMERDLKADSNMPLNNSSQEVTKDLLDMIDHTSIRTIEELAGKIEFENELNHMCGHCQDSPFKEEAWALLMDKSPQKATDADPGSLKQAFDDHNIVETVLDLEEDYNVMTSFKYQIE
partner: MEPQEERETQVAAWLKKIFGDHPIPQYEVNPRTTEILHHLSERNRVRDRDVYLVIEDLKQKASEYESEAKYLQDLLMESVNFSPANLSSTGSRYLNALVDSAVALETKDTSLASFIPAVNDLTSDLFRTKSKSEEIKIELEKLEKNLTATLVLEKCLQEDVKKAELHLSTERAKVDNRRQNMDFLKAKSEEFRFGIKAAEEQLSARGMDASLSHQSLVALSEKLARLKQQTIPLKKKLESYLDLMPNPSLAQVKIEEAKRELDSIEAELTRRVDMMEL
B4: Four and a half LIM domains protein 2 (Homo sapiens), Q14192 (parent)
chain: MTERFDCHHCNESLFGKKYILREESPYCVVCFETLFANTCEECGKPIGCDCKDLSYKDRHWHEACFHCSQCRNSLVDKPFAAKEDQLLCTDCYSNEYSSKCQECKKTIMPGTRKMEYKGSSWHETCFICHRCQQPIGTKSFIPKDNQNFCVPCYEKQHAMQCVQCKKPITTGGVTYREQPWHKECFVCTACRKQLSGQRFTARDDFAYCLNCFCDLYAKKCAGCTNPISGLGGTKYISFEERQWHNDCFNCKKCSLSLVGRGFLTERDDILCPDCGKDI
partner: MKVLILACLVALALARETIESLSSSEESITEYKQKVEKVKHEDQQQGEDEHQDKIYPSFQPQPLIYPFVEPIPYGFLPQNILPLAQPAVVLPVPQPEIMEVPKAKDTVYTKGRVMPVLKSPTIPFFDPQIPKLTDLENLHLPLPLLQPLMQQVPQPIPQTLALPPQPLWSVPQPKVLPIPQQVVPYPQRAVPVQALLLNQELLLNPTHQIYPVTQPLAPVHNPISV
B5: Protein mab-21-like 3 (Homo sapiens), Q8N8X9 (parent)
chain: MKYLTVGDLEDCLLNKVDLRRQQISQAVEEVQKVVHHLTTNISNQDIRFQAVPYSDTYNENIKVLAPSQFLVTVPIKGLAGYREAREQHWRYYTLQGTRLPCPLRDPEGLQQWLEVEQFMKSLWQWHETDVNIDGDIVPAKVLLVFRKLVENAVRTCHLSGKVSLLGNRSAVWVAVETSAYQVELELVPAVEIPTTWSKKARWPRCLQRWPSQERVECIKSFGFNLLACSNYHWQLSFLRAEQVLLEQLDEDGGCRRKCFQVMRHLKEDIWCPGNRPVITSHHLQTVLFWTCEKYPHFKDWQVFSKAFLRLVRKLHKCVSQHFLKHYFVRNSNLFQCTNPTELDTVAQKLATFLKNPQIGPP
partner: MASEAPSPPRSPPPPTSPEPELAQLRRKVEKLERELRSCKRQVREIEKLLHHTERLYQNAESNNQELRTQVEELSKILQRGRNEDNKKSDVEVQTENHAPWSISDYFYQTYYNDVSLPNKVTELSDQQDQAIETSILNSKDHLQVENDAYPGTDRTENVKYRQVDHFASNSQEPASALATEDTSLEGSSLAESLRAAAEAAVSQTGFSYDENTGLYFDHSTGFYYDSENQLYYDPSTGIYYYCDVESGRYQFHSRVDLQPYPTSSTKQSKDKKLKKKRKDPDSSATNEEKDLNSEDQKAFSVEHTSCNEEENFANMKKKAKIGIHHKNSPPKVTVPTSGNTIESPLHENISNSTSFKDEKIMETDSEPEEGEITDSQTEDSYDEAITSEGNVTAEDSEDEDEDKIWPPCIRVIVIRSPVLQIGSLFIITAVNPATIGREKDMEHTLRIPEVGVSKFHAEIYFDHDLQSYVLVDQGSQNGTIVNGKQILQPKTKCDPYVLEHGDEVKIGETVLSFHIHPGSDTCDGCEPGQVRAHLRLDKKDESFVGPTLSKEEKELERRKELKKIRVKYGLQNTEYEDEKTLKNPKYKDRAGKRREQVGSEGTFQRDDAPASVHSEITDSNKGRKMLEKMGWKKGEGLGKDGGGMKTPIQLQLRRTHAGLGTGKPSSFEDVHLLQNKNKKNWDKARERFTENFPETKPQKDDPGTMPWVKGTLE
B6: Proteasome subunit beta type-1 (Homo sapiens), P20618 (parent)
chain: MLSSTAMYSAPGRDLGMEPHRAAGPLQLRFSPYVFNGGTILAIAGEDFAIVASDTRLSEGFSIHTRDSPKCYKLTDKTVIGCSGFHGDCLTLTKIIEARLKMYKHSNNKAMTTGAIAAMLSTILYSRRFFPYYVYNIIGGLDEEGKGAVYSFDPVGSYQRDSFKAGGSASAMLQPLLDNQVGFKNMQNVEHVPLSLDRAMRLVKDVFISAAERDVYTGDALRICIVTKEGIREETVSLRKD
partner: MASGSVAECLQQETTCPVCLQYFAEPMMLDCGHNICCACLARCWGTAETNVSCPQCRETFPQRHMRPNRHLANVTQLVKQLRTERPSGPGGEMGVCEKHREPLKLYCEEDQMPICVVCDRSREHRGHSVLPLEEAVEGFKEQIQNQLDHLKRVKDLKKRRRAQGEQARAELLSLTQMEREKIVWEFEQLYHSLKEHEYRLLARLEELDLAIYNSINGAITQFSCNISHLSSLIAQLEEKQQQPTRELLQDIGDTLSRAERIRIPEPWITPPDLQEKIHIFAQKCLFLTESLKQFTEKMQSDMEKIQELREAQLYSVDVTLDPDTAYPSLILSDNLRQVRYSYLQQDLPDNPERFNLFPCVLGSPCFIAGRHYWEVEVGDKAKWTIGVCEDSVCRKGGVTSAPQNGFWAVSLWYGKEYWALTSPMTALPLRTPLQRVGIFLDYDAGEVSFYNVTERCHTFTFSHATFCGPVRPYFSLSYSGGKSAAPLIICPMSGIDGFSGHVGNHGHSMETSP
B7: Myomegalin (Homo sapiens), Q5VU43-2 (parent)
chain: MKEICRICARELCGNQRRWIFHTASKLNLQVLLSHVLGKDVPRDGKAEFACSKCAFMLDRIYRFDTVIARIEALSIERLQKLLLEKDRLKFCIASMYRKNNDDSGAEIKAGNGTVDMSVLPDARYSALLQEDFAYSGFECWVENEDQIQEPHSCHGSEGPGNRPRRCRGCAALRVADSDYEAICKVPRKVARSISCGPSSRWSTSICTEEPALSEVGPPDLASTKVPPDGESMEEETPGSSVESLDASVQASPPQQKDEETERSAKELGKCDCCSDDQAPQHGCNHKLELALSMIKGLDYKPIQSPRGSRLPIPVKSSLPGAKPGPSMTDGVSSGFLNRSLKPLYKTPVSYPLELSDLQELWDDLCEDYLPLRVQPMTEELLKQQKLNSHETTITQQSVSDSHLAELQEKIQQTEATNKILQEKLNEMSYELKCAQESSQKQDGTIQNLKETLKSRERETEELYQVIEGQNDTMAKLREMLHQSQLGQLHSSEGTSPAQQQVALLDLQSALFCSQLEIQKLQRVVRQKERQLADAKQCVQFVEAAAHESEQQKEASWKHNQELRKALQQLQEELQNKSQQLRAWEAEKYNEIRTQEQNIQHLNHSLSHKEQLLQEFRELLQYRDNSDKTLEANEMLLEKLRQRIHDKAVALERAIDEKFSALEEKEKELRQLRLAVRERDHDLERLRDVLSSNEATMQSMESLLRAKGLEVEQLSTTCQNLQWLKEEMETKFSRWQKEQESIIQQLQTSLHDRNKEVEDLSATLLCKLGPGQSEIAEELCQRLQRKERMLQDLLSDRNKQVLEHEMEIQGLLQSVSTREQESQAAAEKLVQALMERNSELQALRQYLGGRDSLMSQAPISNQQAEVTPTGRLGKQTDQGSMQIPSRDDSTSLTAKEDVSIPRSTLGDLDTVAGLEKELSNAKEELELMAKKERESQMELSALQSMMAVQEEELQVQAADMESLTRNIQIKEDLIKDLQMQLVDPEDIPAMERLTQEVLLLREKVASVESQGQEISGNRRQQLLLMLEGLVDERSRLNEALQAERQLYSSLVKFHAHPESSERDRTLQVELEGAQVLRSRLEEVLGRSLERLNRLETLAAIGGAAAGDDTEDTSTEFTDSIEEEAAHHSHQQL
partner: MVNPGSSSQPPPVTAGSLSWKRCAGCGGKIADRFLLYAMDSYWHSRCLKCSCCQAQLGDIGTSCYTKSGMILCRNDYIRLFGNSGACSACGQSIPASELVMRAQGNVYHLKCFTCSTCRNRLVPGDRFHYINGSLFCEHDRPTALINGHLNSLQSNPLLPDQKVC

Variants of: B1
Settings: with cchcr_human CCHCR1, Q8TD31

Variant	effect of a mutation on the interaction
T224I	with no effect

Variants of: B2
Settings: with traf2_human TRAF2, Q12933
traf2_human TRAF2, Q12933, sequence (Q12933 whole entry): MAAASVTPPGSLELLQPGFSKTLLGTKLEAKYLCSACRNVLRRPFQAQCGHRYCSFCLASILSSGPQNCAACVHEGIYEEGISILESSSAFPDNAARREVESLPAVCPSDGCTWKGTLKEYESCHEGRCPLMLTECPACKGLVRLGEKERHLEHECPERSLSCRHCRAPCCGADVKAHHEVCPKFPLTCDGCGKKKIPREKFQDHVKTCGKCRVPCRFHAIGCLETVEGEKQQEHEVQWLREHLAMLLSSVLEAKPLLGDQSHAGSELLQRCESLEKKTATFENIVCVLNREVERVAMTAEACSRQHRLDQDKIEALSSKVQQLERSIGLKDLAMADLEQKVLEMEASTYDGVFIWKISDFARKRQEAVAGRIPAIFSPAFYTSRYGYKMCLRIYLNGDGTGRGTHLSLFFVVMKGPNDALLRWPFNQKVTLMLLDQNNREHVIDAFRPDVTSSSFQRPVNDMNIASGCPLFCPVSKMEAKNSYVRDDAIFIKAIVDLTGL

Variant	effect of a mutation on the interaction
V208M	with no effect
R228H	with no effect
R228C	with no effect
R226C	with no effect
R226H	with no effect
K193R	with no effect

Variants of: B3
Settings: with haus1_human HAUS1, Q96CS2

Variant	effect of a mutation on the interaction
R66G	with no effect

Variants of: B4
Settings: with casb_human CSN2, P05814

Variant	effect of a mutation on the interaction
A37S	with no effect
N95K	with no effect

Variants of: B5
Settings: with aggf1_human AGGF1, Q8N302

Variant	effect of a mutation on the interaction
T338A	with no effect

Variants of: B6
Settings: with tri27_human TRIM27, P14373

Variant	effect of a mutation on the interaction
P11A	with no effect

Variants of: B7
Settings: with lmo4_human LMO4, P61968

Variant	effect of a mutation on the interaction
N28S	with no effect
